This assay addresses Full-length ectodomain of human LRP1 (LRP1-ECD) (human, UniProt Q07954-1 20-4414). The experiment in a line: SEC. A general note: In gel filtration, larger molecules generally elute earlier.

Sequence of Full-length ectodomain of human LRP1 (LRP1-ECD) (Q07954 20-4414): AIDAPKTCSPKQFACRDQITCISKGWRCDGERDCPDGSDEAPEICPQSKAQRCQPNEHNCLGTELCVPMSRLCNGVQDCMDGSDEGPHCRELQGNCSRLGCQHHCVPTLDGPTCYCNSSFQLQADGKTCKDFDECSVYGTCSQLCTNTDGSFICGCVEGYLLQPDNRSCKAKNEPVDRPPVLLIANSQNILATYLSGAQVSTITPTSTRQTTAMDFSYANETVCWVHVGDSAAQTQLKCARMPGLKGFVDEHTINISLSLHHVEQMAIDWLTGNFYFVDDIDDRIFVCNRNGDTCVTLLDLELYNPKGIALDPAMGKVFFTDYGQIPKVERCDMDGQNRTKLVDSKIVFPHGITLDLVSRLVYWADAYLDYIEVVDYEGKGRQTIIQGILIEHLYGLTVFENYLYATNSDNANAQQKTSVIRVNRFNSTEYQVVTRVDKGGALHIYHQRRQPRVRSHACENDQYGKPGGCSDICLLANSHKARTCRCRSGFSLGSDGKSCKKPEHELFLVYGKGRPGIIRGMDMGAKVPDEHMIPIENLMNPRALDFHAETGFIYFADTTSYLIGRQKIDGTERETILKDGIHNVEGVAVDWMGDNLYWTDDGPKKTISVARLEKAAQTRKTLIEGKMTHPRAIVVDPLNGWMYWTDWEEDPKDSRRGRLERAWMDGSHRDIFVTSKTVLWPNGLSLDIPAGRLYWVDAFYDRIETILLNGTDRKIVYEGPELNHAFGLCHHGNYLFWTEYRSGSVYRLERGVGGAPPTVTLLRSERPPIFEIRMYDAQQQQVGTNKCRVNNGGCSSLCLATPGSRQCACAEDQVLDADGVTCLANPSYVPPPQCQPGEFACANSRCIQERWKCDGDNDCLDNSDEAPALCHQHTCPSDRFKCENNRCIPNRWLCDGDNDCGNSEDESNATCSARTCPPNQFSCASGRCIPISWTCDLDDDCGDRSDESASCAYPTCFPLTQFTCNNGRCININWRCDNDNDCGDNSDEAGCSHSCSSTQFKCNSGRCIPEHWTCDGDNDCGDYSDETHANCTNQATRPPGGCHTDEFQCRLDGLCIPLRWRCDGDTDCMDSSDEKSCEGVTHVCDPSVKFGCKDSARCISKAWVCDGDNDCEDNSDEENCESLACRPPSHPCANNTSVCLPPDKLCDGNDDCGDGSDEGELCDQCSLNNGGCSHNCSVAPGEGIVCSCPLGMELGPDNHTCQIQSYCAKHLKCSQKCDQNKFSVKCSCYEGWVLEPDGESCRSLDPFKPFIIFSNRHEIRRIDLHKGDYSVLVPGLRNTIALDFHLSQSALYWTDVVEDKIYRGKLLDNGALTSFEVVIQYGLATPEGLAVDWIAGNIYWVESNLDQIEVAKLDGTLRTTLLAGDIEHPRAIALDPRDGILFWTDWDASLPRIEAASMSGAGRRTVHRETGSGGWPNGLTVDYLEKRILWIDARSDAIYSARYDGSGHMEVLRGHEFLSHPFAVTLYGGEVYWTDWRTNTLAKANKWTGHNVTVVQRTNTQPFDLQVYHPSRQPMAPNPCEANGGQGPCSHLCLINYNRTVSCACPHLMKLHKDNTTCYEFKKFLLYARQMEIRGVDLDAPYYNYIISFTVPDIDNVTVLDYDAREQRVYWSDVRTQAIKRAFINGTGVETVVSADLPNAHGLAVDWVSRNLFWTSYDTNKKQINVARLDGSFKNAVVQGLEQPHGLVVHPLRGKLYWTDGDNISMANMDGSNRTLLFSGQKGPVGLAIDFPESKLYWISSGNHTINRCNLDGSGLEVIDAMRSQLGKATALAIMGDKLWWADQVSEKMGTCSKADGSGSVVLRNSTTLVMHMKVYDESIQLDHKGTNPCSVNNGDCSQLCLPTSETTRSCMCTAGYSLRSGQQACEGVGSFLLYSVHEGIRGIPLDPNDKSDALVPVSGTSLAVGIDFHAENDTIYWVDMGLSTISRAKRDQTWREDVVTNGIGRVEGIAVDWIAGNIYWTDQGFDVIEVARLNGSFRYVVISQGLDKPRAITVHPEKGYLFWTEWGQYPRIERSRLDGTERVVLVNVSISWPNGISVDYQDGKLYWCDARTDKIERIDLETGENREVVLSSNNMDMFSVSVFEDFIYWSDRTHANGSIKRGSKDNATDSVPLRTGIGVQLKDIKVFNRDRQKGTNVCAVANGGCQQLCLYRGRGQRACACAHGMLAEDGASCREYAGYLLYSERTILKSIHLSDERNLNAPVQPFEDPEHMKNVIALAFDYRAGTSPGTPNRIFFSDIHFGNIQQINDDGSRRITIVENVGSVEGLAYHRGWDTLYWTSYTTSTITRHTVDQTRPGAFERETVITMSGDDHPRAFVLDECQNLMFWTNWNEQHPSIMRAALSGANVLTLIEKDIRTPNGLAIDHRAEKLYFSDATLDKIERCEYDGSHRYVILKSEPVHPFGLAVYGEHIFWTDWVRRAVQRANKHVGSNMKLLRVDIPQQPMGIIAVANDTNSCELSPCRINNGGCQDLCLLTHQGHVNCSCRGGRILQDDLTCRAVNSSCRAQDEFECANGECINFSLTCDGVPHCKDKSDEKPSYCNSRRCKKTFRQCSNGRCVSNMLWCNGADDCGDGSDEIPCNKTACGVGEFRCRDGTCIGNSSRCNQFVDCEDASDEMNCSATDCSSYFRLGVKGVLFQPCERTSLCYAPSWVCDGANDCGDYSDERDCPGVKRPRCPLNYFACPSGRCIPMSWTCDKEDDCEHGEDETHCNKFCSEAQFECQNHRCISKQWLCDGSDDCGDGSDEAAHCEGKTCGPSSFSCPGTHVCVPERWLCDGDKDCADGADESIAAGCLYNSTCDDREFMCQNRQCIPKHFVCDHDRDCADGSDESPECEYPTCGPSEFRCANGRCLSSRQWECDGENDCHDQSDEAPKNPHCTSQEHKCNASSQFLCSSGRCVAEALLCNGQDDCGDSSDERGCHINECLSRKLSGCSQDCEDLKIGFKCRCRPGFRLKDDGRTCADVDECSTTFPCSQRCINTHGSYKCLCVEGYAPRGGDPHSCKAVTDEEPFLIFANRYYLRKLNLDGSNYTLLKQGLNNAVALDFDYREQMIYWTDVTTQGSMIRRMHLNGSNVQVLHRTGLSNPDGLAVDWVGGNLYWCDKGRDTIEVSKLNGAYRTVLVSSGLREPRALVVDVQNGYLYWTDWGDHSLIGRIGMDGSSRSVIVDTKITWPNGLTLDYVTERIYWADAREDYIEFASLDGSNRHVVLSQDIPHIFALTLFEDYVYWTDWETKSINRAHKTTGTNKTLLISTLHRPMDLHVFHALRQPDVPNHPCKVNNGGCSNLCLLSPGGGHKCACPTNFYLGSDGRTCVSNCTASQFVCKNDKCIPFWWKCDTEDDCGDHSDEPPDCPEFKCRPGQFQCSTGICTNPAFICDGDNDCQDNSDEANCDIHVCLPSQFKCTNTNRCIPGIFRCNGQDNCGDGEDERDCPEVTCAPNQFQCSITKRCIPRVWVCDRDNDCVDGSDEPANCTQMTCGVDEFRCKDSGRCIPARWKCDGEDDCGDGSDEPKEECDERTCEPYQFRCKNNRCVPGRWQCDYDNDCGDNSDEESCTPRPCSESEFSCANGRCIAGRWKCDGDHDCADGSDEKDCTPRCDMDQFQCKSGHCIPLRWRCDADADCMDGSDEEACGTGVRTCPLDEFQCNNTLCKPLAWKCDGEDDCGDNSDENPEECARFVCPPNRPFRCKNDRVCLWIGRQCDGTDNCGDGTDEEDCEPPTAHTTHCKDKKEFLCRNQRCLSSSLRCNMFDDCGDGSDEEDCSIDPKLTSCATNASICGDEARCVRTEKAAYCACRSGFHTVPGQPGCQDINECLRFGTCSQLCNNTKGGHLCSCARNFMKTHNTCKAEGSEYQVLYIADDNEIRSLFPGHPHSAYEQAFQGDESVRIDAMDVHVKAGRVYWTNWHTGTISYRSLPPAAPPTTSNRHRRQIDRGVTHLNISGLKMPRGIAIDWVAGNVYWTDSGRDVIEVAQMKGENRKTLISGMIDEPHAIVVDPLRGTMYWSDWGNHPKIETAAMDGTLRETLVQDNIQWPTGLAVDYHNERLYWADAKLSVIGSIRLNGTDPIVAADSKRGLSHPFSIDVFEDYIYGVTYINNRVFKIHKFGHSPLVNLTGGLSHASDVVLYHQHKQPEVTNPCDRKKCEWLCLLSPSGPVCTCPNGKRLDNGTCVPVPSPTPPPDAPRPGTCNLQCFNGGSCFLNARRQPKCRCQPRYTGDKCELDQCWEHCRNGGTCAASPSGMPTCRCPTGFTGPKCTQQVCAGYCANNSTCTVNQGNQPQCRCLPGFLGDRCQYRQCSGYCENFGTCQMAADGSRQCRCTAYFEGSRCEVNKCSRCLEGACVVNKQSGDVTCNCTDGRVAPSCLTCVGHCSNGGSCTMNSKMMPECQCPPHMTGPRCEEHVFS

B1: Recombinant mouse SAA1 (purified SAA1, tag state not stated) (natural protein, UniProt P05366 20-122, looked up)
chain: GFFSFVHEAFQGAGDMWRAYTDMKEANWKNSDKYFHARGNYDAAQRGPGGVWAAEKISDGREAFQEFFGRGHEDTIADQEANRHGRSGKDPNYYRPPGLPDKY
Turning to B1, the binding result is on record as “binds”.

The values are drawn from PMC8532503 (Science (New York, N.Y.), 2021).
